This is an account of results in publication PMC4109836, “Analysis of the co-operative interaction between the allosterically regulated proteins GK and GKRP using tryptophan fluorescence” (Biochemical Journal, 2014).

Test [1] has as its target T1, GK-W99R/W167F/W257F (Homo sapiens, UniProt P35557, W167F/W257F/W99R).
T1 construct: GST (cleaved yes); made in house; host or cells: Escherichia coli
T1 sequence (P35557 1-465 W99R/W167F/W257F): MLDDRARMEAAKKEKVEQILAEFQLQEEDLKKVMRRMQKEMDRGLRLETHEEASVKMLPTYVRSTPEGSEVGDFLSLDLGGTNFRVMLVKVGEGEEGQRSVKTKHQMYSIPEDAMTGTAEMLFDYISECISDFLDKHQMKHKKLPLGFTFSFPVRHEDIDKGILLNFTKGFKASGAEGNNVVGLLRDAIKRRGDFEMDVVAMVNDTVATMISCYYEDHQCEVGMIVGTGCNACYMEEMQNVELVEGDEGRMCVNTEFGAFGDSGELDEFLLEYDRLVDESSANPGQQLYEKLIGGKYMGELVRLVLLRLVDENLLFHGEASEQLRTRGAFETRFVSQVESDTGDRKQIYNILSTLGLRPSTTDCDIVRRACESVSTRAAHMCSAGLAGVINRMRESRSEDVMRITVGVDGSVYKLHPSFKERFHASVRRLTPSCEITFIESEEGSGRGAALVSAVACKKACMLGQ
Further details: method as in ref 4 (a number printed in a supplementary file, which may have a reference list of its own: not looked up in the article's list). The note with it: cited from earlier work.

Test [2] addresses T2, GKRP-WT (Homo sapiens, UniProt Q14397).
T2 construct: FLAG; made in house; host or cells: Escherichia coli
T2 sequence (Q14397 1-625): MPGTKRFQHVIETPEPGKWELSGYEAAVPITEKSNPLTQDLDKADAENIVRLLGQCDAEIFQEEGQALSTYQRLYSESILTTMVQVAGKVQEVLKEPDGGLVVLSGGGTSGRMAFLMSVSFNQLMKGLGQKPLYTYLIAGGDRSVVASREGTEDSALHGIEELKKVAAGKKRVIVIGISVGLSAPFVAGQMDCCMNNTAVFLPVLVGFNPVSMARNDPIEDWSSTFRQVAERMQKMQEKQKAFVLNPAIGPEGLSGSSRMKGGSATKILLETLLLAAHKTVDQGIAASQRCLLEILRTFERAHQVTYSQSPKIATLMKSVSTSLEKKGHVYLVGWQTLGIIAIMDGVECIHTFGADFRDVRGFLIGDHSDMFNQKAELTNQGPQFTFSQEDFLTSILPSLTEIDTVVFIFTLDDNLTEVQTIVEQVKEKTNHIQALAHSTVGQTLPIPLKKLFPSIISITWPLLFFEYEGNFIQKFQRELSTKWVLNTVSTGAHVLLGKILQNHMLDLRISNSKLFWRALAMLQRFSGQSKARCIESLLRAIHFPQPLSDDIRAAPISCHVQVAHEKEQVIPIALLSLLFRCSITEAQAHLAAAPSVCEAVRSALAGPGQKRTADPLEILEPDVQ
The experiment in a line: Ligand binding to free GKRP-WT measured by TF of GKRP. The note with it: ligand alone.

The next test concerns the target T3, GK-WT (Homo sapiens, UniProt P35557).
T3 construct: GST (cleaved yes); made in house; host or cells: Escherichia coli
T3 sequence (P35557 1-465): T1 sequence (P35557 1-465 W99R/W167F/W257F) with R99W, F167W, F257W
On the set-up: method as in ref 4 (a number printed in a supplementary file, which may have a reference list of its own: not looked up in the article's list). The note with it: cited from earlier work.

The subject of the next test is GK (glucokinase). The note with it: cited from earlier work.
In test [3] the target is T1, GK-W99R/W167F/W257F. The experiment in a line: Glucose binding to unbound GK-W99R/W167F/W257F.
For test [4], the target named is T4, GKRP-WT (Homo sapiens, UniProt P35557+Q14397, W167F/W257F/W99R).
T4 construct: FLAG; GST (cleaved yes); made in house; host or cells: Escherichia coli
T4 sequence (Q14397 1-625): T2 sequence (Q14397 1-625)
T4 sequence (P35557 1-465 W99R/W167F/W257F): T1 sequence (P35557 1-465 W99R/W167F/W257F)
The experiment in a line: Titration of GKRP-WT with GK-W99R/W167F/W257F (GK–GKRP complex assembly) by TF.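 For all read-outs here: tryptophan fluorescence of GKRP titrated with GK, excitation 295 nm, emission read at 340 nm, phosphate buffer pH 7.2, Hill equation fitting.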 It is filed as binding. The note with it: for Kd: read-out: S0.5 of GK.

The mark [5] stands for this setting: GK titration with 20 μM GKA, 20°C.
Setting [6] is: GK titration with 500 μM F1P, 20°C.
The mark [7] stands for this setting: GK titration with 500 μM F6P, sigmoidal fit, 20°C.
The mark [8] stands for this setting: GK titration with 500 μM F6P, simple saturation fit (H = 1).
[9] abbreviates: GK titration with 100 mM D-glucose and 20 μM GKA, 20°C.
Setting [10] is: GK titration with 100 mM D-glucose and 500 μM F1P, 20°C.
Setting [11] is: GK titration with 100 mM D-glucose and 500 μM F6P, 20°C.
Setting [12] is: GK titration with 100 mM D-glucose, 20°C.
Setting [13] is: GK titration, no further agent, sigmoidal fit, 20°C.
Setting [14] is: GK titration, no further agent, simple saturation fit (H = 1).

Numbering of substitutions follows the chain as printed. Names may count otherwise. Read-outs that look alike come from different tables or passages of the source.

Consider `OC[C@H]1OC(O)[C@H](O)[C@@H](O)[C@@H]1O` (stereo partly drawn) [D-Glucose, D-glucose], for which, on GK-W99R/W167F/W257F [1], the “H (glucose)” value is 1.45 and the “glucose S0.5” value was 4.8 mM. Further, on GKRP-WT [2] (0.3 μM GKRP-WT, 20°C), the “ΔF (relative fluorescence change at 340 nm)” value came to 0. Further, the “effect on the TF signal of GKRP-WT” value at GKRP-WT [2] was “no effect”. Also, on GK-WT, the “H (glucose)” value is reported as 1.77 and the “glucose S0.5” value is listed as 7.5 mM. Further, in the test with GK (glucokinase), the “Hill coefficient of GK with respect to glucose” value is given as “approximately 1.7” and the “affinity of GK for glucose” value is on record as “approximately 7.5 mM”. At GK-W99R/W167F/W257F [3], the Kd was determined as 5000 µM.

B1: GK-W99R/W167F/W257F: tryptophan residue-free, non-fluorescent recombinant human β-cell GK made for the present study (protein)
chain: T1 sequence (P35557 1-465 W99R/W167F/W257F)
modifications: left off: GST, end not stated, cleaved
notes: tryptophan residue-free, non-fluorescent recombinant human β-cell GK made for the present study
As for B1, the H came to 3.4 with GKRP-WT [4] (setting [5]); 2.8 with GKRP-WT [4] (setting [6]); 1.71 in the test with GKRP-WT [4] (setting [7]); 1 with GKRP-WT [4] (GK titration with 500 μM F6P, simple saturation fit); 3.2 with GKRP-WT [4] (setting [9]); 2.25 with GKRP-WT [4] (setting [10]). For the same molecule, the H with GKRP-WT [4] (setting [11]) worked out at 2.83; with GKRP-WT [4] (setting [12]), 2.78; with GKRP-WT [4] (setting [13]), 1.74; with GKRP-WT [4] (GK titration, no further agent, simple saturation fit), 1. Also, the ΔF with GKRP-WT [4] (setting [5]) came out at 0.42; in the test with GKRP-WT [4] (setting [6]) it was 0.32; with GKRP-WT [4] (setting [7]) it was 0.31; with GKRP-WT [4] (setting [8]) it was 0.43; in the test with GKRP-WT [4] (setting [9]) it was 0.42; with GKRP-WT [4] (setting [11]), 0.35. For the same molecule, the ΔF with GKRP-WT [4] (setting [12]) amounted to 0.42; with GKRP-WT [4] (setting [13]), 0.29; in the test with GKRP-WT [4] (setting [14]), 0.39. Also, the Kd in the test with GKRP-WT [4] (setting [5]) stood at 2.77 µM; in the test with GKRP-WT [4] (setting [6]), 2.68 µM; with GKRP-WT [4] (setting [7]) it was 1.2 µM; in the test with GKRP-WT [4] (setting [8]), 1.84 µM; with GKRP-WT [4] (setting [9]), 4.75 µM; in the test with GKRP-WT [4] (setting [10]), 3.3 µM. Further, the Kd in the test with GKRP-WT [4] (setting [11]) is 2.43 µM; with GKRP-WT [4] (setting [12]), 2.56 µM; in the test with GKRP-WT [4] (GK titration, no further agent, sigmoidal fit, 20°C, listed as GK), roughly 1.2 µM; with GKRP-WT [4] (setting [13]) it was 1.22 µM; in the test with GKRP-WT [4] (setting [14]) it was 1.85 µM. Moreover, the “maximal ΔTF value of GKRP-WT” value in the test with GKRP-WT [4] (range depending on the assay conditions) is 0.29–0.42. Further, in the test with GKRP-WT [4] (saturating GK (5 μM), 0.3 μM GKRP), the “increase of the TF of GKRP-WT” value turned out to be 29%. For the same molecule, the “S0.5 value of GK with GKRP-WT lower than with GKRP-P446L (on average)” value in the test with GKRP-WT [4] (with and without F6P) worked out at 35%.
